{"source": "paper PMC4814874", "key": {"[1]": {"molecular_target": "MART1 peptide on HLA-A*02:01 (human)", "experiment": "structural avidity; Jurkat 76/CD8; graded A2/MART1 multimer; full-length, on cells"}, "[2]": {"molecular_target": "MART1 peptide on HLA-A*02:01 (human)", "experiment": "structural avidity; Jurkat 76 without CD8; graded A2/MART1 multimer; full-length, on cells"}, "[3]": {"molecular_target": "MART1 peptide on HLA-A*02:01 (human)", "experiment": "IL-2 ELISPOT; Jurkat 76 without CD8; T2 + graded peptide; full-length, on cells"}, "[4]": {"molecular_target": "MART1 peptide on HLA-A*02:01 (human)", "experiment": "IL-2 ELISPOT; Jurkat 76/CD8; T2 + graded peptide; full-length, on cells"}}}
{"substance": "DMF5", "values": [{"measurement": "EC50 of multimer", "setting": "[1]", "result": 0.013, "unit": "µg/mL"}, {"measurement": "EC50 of multimer", "setting": "[2]", "result": 0.022, "unit": "µg/mL"}, {"measurement": "EC50 of peptide", "setting": "[3]", "result": 0.363, "unit": "µg/mL"}, {"measurement": "EC50 of peptide", "setting": "[4]", "result": 0.102, "unit": "µg/mL"}]}
